Experimental data published in article PMC9798004 (Frontiers in Psychiatry, 2022).

What was measured:
Type in all cases: cell-based
CCR5 = molecular target: T1, CCR5 (Homo sapiens, UniProt P51681); assay: PathHunter β-arrestin assay; details: screen, control agonist; CHO, 37C, 2HR
T1 construct: purchased Eurofins DiscoverX (PathHunter gpcrMAX)

CCR1 = molecular target: T2, CCR1 (Homo sapiens, UniProt P32246); assay: PathHunter β-arrestin assay; details: screen, control agonist; CHO, 37C, 2HR
T2 construct: purchased Eurofins DiscoverX (PathHunter gpcrMAX)
T2 sequence (P32246 1-355): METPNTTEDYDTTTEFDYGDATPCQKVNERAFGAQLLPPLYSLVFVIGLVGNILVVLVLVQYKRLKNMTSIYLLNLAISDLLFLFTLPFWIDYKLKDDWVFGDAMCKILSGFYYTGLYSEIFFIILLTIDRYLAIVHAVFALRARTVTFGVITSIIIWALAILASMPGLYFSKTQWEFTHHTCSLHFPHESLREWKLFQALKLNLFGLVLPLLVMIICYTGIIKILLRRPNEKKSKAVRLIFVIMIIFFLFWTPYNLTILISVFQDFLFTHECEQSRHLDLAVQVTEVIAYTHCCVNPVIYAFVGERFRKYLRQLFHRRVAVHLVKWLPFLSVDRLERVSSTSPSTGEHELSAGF

CXCR3 = molecular target: T3, CXCR3 (Homo sapiens, UniProt P49682); assay: PathHunter β-arrestin assay; details: screen, control agonist; CHO, 37C, 2HR
T3 construct: purchased Eurofins DiscoverX (PathHunter gpcrMAX)
T3 sequence (P49682 1-368): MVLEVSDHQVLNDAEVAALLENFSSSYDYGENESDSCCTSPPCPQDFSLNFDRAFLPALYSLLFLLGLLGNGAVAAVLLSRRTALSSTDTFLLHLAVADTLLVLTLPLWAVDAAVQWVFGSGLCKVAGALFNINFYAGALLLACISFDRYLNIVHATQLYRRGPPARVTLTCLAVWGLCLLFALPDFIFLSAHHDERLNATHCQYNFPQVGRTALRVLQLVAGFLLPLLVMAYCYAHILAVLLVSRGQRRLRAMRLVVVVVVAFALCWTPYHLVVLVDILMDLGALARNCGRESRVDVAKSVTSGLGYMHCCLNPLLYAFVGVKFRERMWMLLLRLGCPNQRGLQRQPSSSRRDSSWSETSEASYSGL

[1] = test system: AtT20 cells wildtype (WT); assay: LDH release cytotoxicity assay; details: 30 μM
Method: AtT20 cells expressing either human CB1 (hCB1) or CB2 (hCB2) receptors or wildtype (WT) were grown to confluence in T75 cm^2 flasks in Dulbecco's modified eagle medium containing 10% fetal bovine serum, 100 U penicillin/streptomycin, and 80 μg/mL hygromicyin (Sigma-Aldrich/Merck; Castle Hill, NSW, Australia). Cells were plated in 96-well-microplates at 30,000 cells per well and allowed to adhere overnight in 5% CO2. The following morning, cells were treated with either vehicle (0.1% DMSO; negative control), 30 μM Δ^9-THC, or 30 μM AMB-FUBINACA. At 1 or 6 h, the amount of lactate dehydrogenase in the cell media was tested, and compared with positive control (lysed cells) as per manufacturer's instructions (Dojindo Molecular Technologies, Inc.; Rockville, MD, USA), with readings performed on a Clariostar Plus plate reader (BMG Labtech, Mornington, VIC, Australia). Experiments were performed in triplicate. In order to measure any accumulating LDH, media was not changed after initial incubation. Data is represented as means ± S.E.M. A two-way ANOVA with was performed on the data at each time point, with Tukey's multiple comparison test (α = 0.05). A p < 0.05 was considered statistically significant.

CNR2 = molecular target: T4, CNR2 (Homo sapiens, UniProt P34972); assay: PathHunter β-arrestin assay; details: screen, control agonist; CHO, RT, 2HR
T4 construct: purchased Eurofins DiscoverX (PathHunter gpcrMAX)

CNR1 (CB1) = molecular target: T5, CNR1 (CB1) (Homo sapiens, UniProt P21554); assay: PathHunter β-arrestin assay; details: screen, control agonist; CHO, 37C, 2HR
T5 construct: host or cells: CHO

CXCR4 = molecular target: T6, CXCR4 (Homo sapiens, UniProt P61073); assay: PathHunter β-arrestin assay; details: screen, control agonist; C2C12, 37C, 2HR
T6 construct: purchased Eurofins DiscoverX (PathHunter gpcrMAX)

CXCR5 = molecular target: T7, CXCR5 (Homo sapiens, UniProt P32302); assay: PathHunter β-arrestin assay; details: screen, control agonist; CHO, 37C, 2HR
T7 construct: purchased Eurofins DiscoverX (PathHunter gpcrMAX)
T7 sequence (P32302 1-372): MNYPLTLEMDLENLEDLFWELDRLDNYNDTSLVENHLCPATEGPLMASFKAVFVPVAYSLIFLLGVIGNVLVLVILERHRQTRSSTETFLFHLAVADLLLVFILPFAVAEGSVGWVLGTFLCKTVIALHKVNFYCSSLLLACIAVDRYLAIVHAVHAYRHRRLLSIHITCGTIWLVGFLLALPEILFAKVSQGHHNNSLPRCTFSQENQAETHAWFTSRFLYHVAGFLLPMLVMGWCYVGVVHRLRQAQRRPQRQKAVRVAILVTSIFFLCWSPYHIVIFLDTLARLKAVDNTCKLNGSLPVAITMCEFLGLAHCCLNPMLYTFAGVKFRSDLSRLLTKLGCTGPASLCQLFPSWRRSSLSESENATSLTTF

CCR3 = molecular target: T8, CCR3 (Homo sapiens, UniProt P51677); assay: PathHunter β-arrestin assay; details: screen, control agonist; CHO, 37C, 2HR
T8 construct: purchased Eurofins DiscoverX (PathHunter gpcrMAX)
T8 sequence (P51677 1-355): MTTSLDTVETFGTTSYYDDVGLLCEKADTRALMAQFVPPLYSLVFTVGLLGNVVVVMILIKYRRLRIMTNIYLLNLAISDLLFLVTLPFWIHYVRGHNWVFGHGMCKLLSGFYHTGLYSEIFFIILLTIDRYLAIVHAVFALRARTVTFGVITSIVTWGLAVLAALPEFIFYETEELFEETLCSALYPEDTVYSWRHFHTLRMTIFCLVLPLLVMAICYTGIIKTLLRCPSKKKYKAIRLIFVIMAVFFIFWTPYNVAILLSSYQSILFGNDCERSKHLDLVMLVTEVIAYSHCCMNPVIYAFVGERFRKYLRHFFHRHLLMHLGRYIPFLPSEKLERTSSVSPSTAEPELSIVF

T6 sequence (P61073 whole entry): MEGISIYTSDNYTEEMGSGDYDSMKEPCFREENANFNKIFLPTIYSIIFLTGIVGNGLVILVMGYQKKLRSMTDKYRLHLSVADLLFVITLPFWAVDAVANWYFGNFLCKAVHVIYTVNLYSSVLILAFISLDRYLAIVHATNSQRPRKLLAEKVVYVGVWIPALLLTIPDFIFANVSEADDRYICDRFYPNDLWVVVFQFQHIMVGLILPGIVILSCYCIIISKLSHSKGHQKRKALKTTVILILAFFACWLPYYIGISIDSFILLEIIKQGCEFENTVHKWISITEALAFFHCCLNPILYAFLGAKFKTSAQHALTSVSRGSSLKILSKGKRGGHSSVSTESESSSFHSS
T4 sequence (P34972 whole entry): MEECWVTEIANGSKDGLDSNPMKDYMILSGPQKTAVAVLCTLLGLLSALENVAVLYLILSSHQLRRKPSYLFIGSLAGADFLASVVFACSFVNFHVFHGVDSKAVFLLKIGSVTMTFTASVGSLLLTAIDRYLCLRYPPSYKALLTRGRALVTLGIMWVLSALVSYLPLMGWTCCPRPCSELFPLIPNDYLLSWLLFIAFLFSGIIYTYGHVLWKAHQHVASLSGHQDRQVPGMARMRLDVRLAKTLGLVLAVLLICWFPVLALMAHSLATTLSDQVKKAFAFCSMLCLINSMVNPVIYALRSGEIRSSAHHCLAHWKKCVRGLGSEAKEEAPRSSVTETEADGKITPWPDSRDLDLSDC
T1 sequence (P51681 whole entry): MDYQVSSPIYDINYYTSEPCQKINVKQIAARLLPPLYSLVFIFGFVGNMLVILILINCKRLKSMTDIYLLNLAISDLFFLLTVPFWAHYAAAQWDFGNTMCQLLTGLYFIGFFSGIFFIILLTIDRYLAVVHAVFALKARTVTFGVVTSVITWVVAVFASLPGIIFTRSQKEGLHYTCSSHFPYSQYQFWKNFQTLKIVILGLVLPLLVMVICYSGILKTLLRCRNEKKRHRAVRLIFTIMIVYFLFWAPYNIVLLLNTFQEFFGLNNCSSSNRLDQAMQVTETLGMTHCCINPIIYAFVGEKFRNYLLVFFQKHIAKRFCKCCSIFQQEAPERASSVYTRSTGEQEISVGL
T5 sequence (P21554 whole entry): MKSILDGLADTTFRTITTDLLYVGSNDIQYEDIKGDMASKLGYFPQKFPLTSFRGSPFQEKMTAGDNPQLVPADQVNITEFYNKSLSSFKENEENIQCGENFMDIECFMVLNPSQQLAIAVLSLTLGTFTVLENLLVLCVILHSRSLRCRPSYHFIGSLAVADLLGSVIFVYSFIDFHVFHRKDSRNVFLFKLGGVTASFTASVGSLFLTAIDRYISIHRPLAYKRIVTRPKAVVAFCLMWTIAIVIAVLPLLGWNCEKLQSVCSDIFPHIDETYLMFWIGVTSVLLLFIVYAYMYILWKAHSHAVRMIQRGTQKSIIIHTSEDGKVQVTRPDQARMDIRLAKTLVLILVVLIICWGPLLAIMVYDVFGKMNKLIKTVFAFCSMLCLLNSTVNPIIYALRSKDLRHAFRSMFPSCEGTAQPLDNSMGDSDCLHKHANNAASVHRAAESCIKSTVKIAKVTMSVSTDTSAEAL

CCL3: control agonist
EC80 (CCR5): 10.1 nM
EC80 (CCR1): 2.53 nM

CXCL11: control agonist
EC80 (CXCR3): 17.9 nM

CCCCCCC(C)(C)c1ccc([C@@H]2C[C@H](O)CC[C@H]2CCCO)c(O)c1 [CP55940]
LDH in cell media, normalized to total LDH ([1]; 1 h): 28.90 ± 7.81%
LDH increase compared with vehicle ([1]; 6 h): no effect was observed
EC80 (CNR2): 4.12 nM
EC80 (CNR1 (CB1)): 20.3 nM

CXCL12: control agonist
EC80 (CXCR4): 5.15 nM

CXCL13: control agonist
EC80 (CXCR5): 61.3 nM

CCL13: control agonist
EC80 (CCR3): 46.4 nM
